Data: patent US20190113512A1 (MIT, published 2019)
Positions count from the first letter of the chain named.

Key:
[1] = biological target: T1, streptavidin Alexa Fluor 647 (UniProt P22629 37-163); assay: yeast-surface display flow cytometry, secondary reagent alone, geometric MFI
T1 construct: also called SA-AF647; streptavidin-AF 647

H1BA = H1BA (Mycobacterium tuberculosis); assay: yeast-surface display flow cytometry, specificity test
H2BA [2] = biological target: T2, H2BA (Mycobacterium tuberculosis); assay: as above
H6BA = H6BA (Mycobacterium tuberculosis); assay: as above
H7BA = H7BA (Mycobacterium tuberculosis); assay: as above
H2BA [3] = biological target: T2, H2BA; assay: yeast-surface display; validated conditions not given

T1 sequence (P22629 37-163 limits assumed): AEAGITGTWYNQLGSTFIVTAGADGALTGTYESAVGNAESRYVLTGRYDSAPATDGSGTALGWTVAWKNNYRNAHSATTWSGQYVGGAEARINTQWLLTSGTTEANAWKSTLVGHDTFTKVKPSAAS

B1: rcSso7d.Rv1656 (yeast-surface displayed) (designed binder)
chain: MATVKFTYQGEEKQVDISKIKWVRRYGQYIGFSYDEGGGAWGKGYVSEKDAPKELLQMLEKQ
notes: also called rcSso7d.H4.2; H4.2
B1: no binding [1].

B2: rcSso7d.H1BA.3 (designed binder)
chain: MATVKFTYQGEEKQVDISKIKHVIRNGQYIIFAYDEGGGAYGGGWVSEKDAPKELLQMLEKQ
notes: also called 1.E2.2
B2 was tested, and the “% positive” value (H1BA) was 71.5%, the “% positive” value (H2BA [2]) was 0.9% and the “% positive” value (H6BA) was 0.9%. The “% positive” value (H7BA) was 1.3%.

B3: rcSso7d.H2BA.2 (designed binder)
chain: B2 chain with H22Y, I24G, N26W, Y29N, I31G, G43Y, W45G
B3: binds (H2BA [3]).
